Data from the RNAGym collection of RNA variant scans (doi:10.1073/pnas.2313332121).

B1: TPR t1 (parent)
chain: GACCAAUCUGCCCUCAGAGCUCGAGAACAUCUUCGGAUGCAGAGGAGGCAGGCUUCGGUGGCGCGAUAGCGCCAACGUCCUCAACCUCCAAUGCAUCCCACCACAUGAUGAUGCCUGAAGAGCCUUGGUUUUUUG

Variants of: B1
Assay: polymerase ribozyme fitness, log enrichment relative to wild type (log ratio); higher = more active; in vitro selection for triplet polymerase activity
Method in brief: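 Fitness measures genotype enrichment against wild-type enrichment on a logarithmic scale, with inverse-variance-weighted averaging of replicates. The logarithm is base 2, and genotypes were kept only with ≥10 input reads and ≥1 read per output in Illumina sequencing. The sequenced libraries came from one triplicate in vitro selection round, including frozen incubation at −7 °C, of PCR-built, transcribed mutant libraries of each subunit of a heterodimeric triplet polymerase ribozyme.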

Variant	polymerase ribozyme fitness (log ratio)
GACCAAUCUGCCUUCAGAGCUCGAGAACAUCUUCGGAUGCAGAGGAGUCAGGCUUCGGUGGCGCGAUAGCGCUAACGUCCUCAACCUCCAAUGCAUCCCACCACAUGAUGAUGCCUGAAGAGCCUUGGUGUUUUG	-0.119
GACCAAUCUGCCUUCAGAGCUCGAGAACAUCUUCGGAUGCAGAGGAGGCAGUCUUCGGUGGCGCGAUAGCGCCAACGUCCUCAACCUCCAAUGCAUCCCACCACAUGAUUAUGCCUGAAGAGCCUUGGUUUUCUG	-1.33
GACCAAUCUGCCUUCAGAGCUCGAGAACAUCUUCGGAUGCAGAGAAGGCAUGCUUCGGUGGCGCGAUAGCGCCAACGUCCUCAACCUCCAAUGCAUCCCACCACAUGAUGAUGCAUGAAGAGCCUUGGUUUUUUG	-3.13
GACCAAUCUGCCUUCAGAGCUCGAGAACAUCUUCGGAUGCAGAGUAGGCAGGCUUCGGUGGCGCGAUAGCGCCAACGUCCUCAGCCUCCAAUGCAUCCCACCACAUGAUGAUGCCUGAAGUGCCUUGGUUUUUUG	0.667
GACCAAUCUGCCUUCAGAGCUCGAGAACAUCUUCGGAUGCAGAAGAGGCAGGCUUCGGUGGCGCGAUAGCGCCAACGUGCUCAACCUCCAAUUCAUCCCACCACAUGAUGAUGCCUGAAGAGCCUUGGUUUUUUG	-4.32
GACCAAUCUGCCUUCAGAGCUCGAGAACAUCUUCGGAUGCAGAGGAUGCAGGCUUCGGUGGCGCGAUAGCGCCAACGUCCUCAACCUCCAAUGCAUCCCACCACAUGAUGAUGCCUGAAGAGCCUUGGUUUUUUG	-1.97
GACCAAUCUGCCUUCAGAACUCGAGAACAUCUUCGGAUGCAGAGCAGGCAGGCUUCGGCGGCGCGAUAGCGCCAACGUCCUUAACCUCCAAUGCAUCCCACCACAUGAUGAAGCCUGAAGAGCCUUGGUUUUUUG	0.0802
GACCAAUCUGCCUUCAGAGCUCGAGAACAUCUUCGGAUGCAGAGUAGGCAGGCUCCGGUGGCGCGAUAGUGCCAACGUCCUCAACCUCCAAUUCAUCCCACCACAUGAUGAUGCCUGAAGAGCCUUGGUUUUUUG	-3.96
GACCAAUCUGCCUUCAGAGCUCGAGAACAUCUUCGGAUGCAGAGGAGGCAUGCUUCGGUGACGCGAUAGCGCCAACGUCCUCAACCUUCAAUGCAUCCCACCACAAGAUGAUGCCUGAAGAGCCUUGGUUUUUUG	-2.6
GACCAAUCUGCCUUCAGAGCUCGAGAACAUCUUCGGAUGCAGAAGAGGUAGGCUUCGGUGGCGCGAUAGCGCCAACGUCCUCAACGUCCAAUGCAUCCCACUACAGGAUGAGGCCUGAAGCGCCUUGGUUAUAUG	-6.07
GACCAAUCUGCCUUCAGAGCUCGAGAACAUCUUCGGAUGCAGAGGAGGCAGGCUUCAGUGGCGCGAUAGCGCCAACGUCCUCAACCUCCAAUGCAUCCCACAACAUGAUGAUGCCUGAAGAGCCUUCGUUUUUUG	-3.71
GACCAAUCUGCCUUCAGAGCUCGAGAACAUCUUCGGAUGCAGAGUAGGCAGGCUUCGGUGGCGCGAUAGCGCCAACGUCCUUAACCUCCAAUGCAUCCCACCACAUGAUGAUGCCUGAAGAGCCUUGGUUUUUUG	-0.895
GACCAAUCUGCCUUCAGAGCUCGAGAACAUCUUCGGAUUCAGAGGAGGCAGGCUUCGGUGGCGCGAUAGCGCAAACGUCCUCUACCUCCAAUGCAUCCCACCACAUGAUGAUGCCUGAAGUGCCUUGGUUUUUUG	1.24
GACCAAUCUGCCUUCAGAGCUCGAGAACAUCUUCGGAUGCAGAGGAGACAGGCUUCGGUGGCGCGAUAGCGCCAACGUCCUCAACCUCCAAUGCAUCUCACCACAUGAUGAUGCCUGAAGAACCUUGCUUUUUUU	-1.66
GACCAAUCUGCCUUCAGAGCUCGAGAACAUCUUCGGAUCCAGAGGAGGCAGGCUUCGGUGGCUCGAUAGCGCCAACGUCCUCAACCUCCAAUGCAUCCCACCACAUGAUGAUGCCUGAAGAGCCGUGGUUUUAUG	-2.15
GACCAAUCUGCCUUCAGAGCUCGAGAACAUCUUCGGAUGCAGAGGACGCAGGCUUCGGUGGCGCGAUAGCGCCAACGCCCUCAACCUCCAAUGCAUCCCACCACAUGAGGAUGCCUGAAGAGCCUUGGUUUUUUG	-4.45
GACCAAUCUGCCUUCAGAGCUCGAGAACAUCUUCGGAUUCAGAGGAGGCAGGCUUCGGAGGCGCGAUAGCGCCAACGUCCUCAACCUCCAAUGCAUCCCACCACAUGAUGAUGCCUGAAGAGCCUUGUUUUUUUG	-1.64
GACCAAUCUGCCUUCAGAGCUCGAGAACAUCUUCGGAUGCAGAGCAGGCAGGCUUCGGUGGCGCGAUAGCGCUAACGUCCUCAACCUCCAAUGCAUCCCACCACAUGAUGAUGCCUGAAGAGACUUGGUUUUUUG	0.429
GACCAAUCUGCCUUCAGAGCUCGAGAACAUCUUCGGAUGCAGAGCAGGCAGGCUUCGGUGGCGCGAUAGUGCCAACGUCCUCAACCUCCAAUGCAUCCCACCACAUGAUGAUGCCUGAAGAGCAUUGGUUUUUUG	-0.034
GACCAAUCUGCCUUCAGAGCUCGAGAACAUCUUCCGAUGCAGAGGAGGCAGGCUUCGGUGGCGCGAUAGCGCCAACGUCCUCAACCUCCAAUGCAUCCCACCACAUGAUGAUGCCUGAAGAGCCUUGGUUUUUUG	-3.79
GACCAAUCUGCCUUCAGAACUCGAGAACAUCUUCGGAUGCAGAGGAGGCAGGCUUCGGUGGCGCGAUAGCGCCAACCUCCCCAACCUCCAAUGCAUCCCACCACAUGAUGAUGCCUGAAGAGCCUUGGUUUUUUG	-3.54
